According to a protein production outcome set (Wang et al. 2014):

Assay: label from the status in PepcDB records

With “MGSELYLMFFAAITLLAILNPFGNLTQFLAMSDGLPLMLRKKLFRTILYTAFTIVLVFLLSGPLFMNYIFRVSLDDLRVSGGLVLIIMAIKNLLFSTKIATKDFSSYQDMDDKEILRQSLIPMAFPMLVGPGTLASVIVIAEDGGLDVALGGVMIAFIFMFILFHFAATIEKIVGKLILHVFSRIAQVFIVAMGFKMIIVGLKDIFNL” the protein production was “failed”.
With “TRNTLDIRTVAHREADGSYRIKGEKFYSTGALFAHWVSIKALDDNGKTVMAFIERGTQGLRIVDDWSGFGQRTTASGTVLLDDVSVPAKQVVP” the protein production was “failed”.
For “MFPSFITHIQSPNSHHHYSSPSFPFSSDFLESFDESFLINQFLLQQQDVAANVVESPWKFCKKLELKKKNEKCVDGSTSQEVQWRRTVKKRDRHSKICTAQGPRDRRMRLSLQIARKFFDLQDMLGFDKASKTIEWLFSKSKTSIKQLKERVAASEGGGKDEHLQVDEKEKDETLKLRVSKRRTKTMESSFKTKESRERARKRARERTMAKMKMRLFETSETISDPHQETREIKITNGVQLLEKENKEQEWSNTNDVHMVEYQMDSVSIIEKFLGLTSDSSSSSIFGDSEECYTSLSSVRGTISAAGNSNVLTKNPN”, the protein production was “failed”.
For “MPAIQSELDVNGEDFARNREAMLAAVAGFRELEQKVLDKAAEARPKFEKRGQLLPRERLALLLDPGAPFLELSSLAGYKLHDDKDGTQAGGGIIAGIGYIAGVRCLVSASNSAIKGGTISPTGLKKTLRLQQIAMENKLPVVTLTESGGANLNYAAEIFVEGARGFANQARISAMGIPQVTVVHGSSTAGGAYQPGLSDYVVVVRGKAKMFLAGPPLLKAATGEIASDEELGGAELHAQVAGTAEYLAENDADGVRLAREIVGMLPWNAQLPARPARSWREPLYPVEELLGVVPADPKKPYDVREIVARIADGSEFLDFKNEFDGQTVCGHLRIEGHACGLIGNNGPITPQGAAKAAQFIQLCEQSNTPLLFLHNTTGFMVGTESERQGVIKHGSKMIQAVANARVPKLTLVVGGSYGAGNYAMCGRGLDPRFIFAWPNSRTAVMGGAQAGKVLRIVTEEKHAKEGKEADPKMLEMLETVTAQKLDSQSTALYGTASLWDDGLVDPRDSRRLLGYLLDICAEAEARPLKGNSFGVAR”, the protein production was “not failed”.
With “MGEAAKDQTEEVIQAWYLDNKEEDQKLPHHKDPKEFVSLDKLAELGVLCWRLDADNYETDEELKRIRESRGYSYMDLCEVCPEKLPNYEEKVKMFFEEHLHIDEEIRYCLAGSGYFDVRDLNDIWIRVWVKKGGLIVFPAGIYHRFTVDSDNYMKAMRLFVGGPVWTAYNRPHDHLPARKAYMKKFLKVIGDRNIDASA” the protein production was “failed”.
In the case of “MKVLTVVIPCYNSAEYMDRAIESLLIGDEELEILIVNDGSMDNTSIIADEYEKKYPNTIRVIHKENGGHGDAINTGLKHSKGVYFKVLDSDDWFDKASLKKVLEVLKNMIKDSKSLDMLISNYVYENFSINKSRSINYKGAMPKEKIFTWDSLGHLKSSQNILMHSVIYRTELLRECNLDLPKHTFYVDNIFVYKPLPYVKTMYYLDVDLYRYFIGREDQSVNEKVMIKRIDQQIKVTKILIDCYNPMLLNCKKLRKYMVKYLVMMMTVSTVLLIKDNTEQSLNKKRELWSYLHSKNRKLYFEVNKSFLGLLIQIKGFVGRKIILLGYSLSRKVFGFNLEHHHHHH”, the protein production is reported as “failed”.
In the case of “MCTSLTLETKNGQHLFARTMDFTLDMNQEVIIIPRHYQWNNITGEIINTKHATVGMGINHQGRIIMADGVNEAGMTCATLYFPGFATYSQSIDDNTTNLAPFDFVTWSLTQFNSVKELKKSVDSITFLDIPLPDLGLTPPLHWILADKWGDCIVLDPTSEGLKLYDNPLGVMTNSPEFNWHLQNLRQYIGLKSQPFAPTEWSNLPLSAFGQGSGSMGLPGDFTPPSRFVRAAYGKQNIQGIDSEEEGVSALFHILSNCEVPKGGVITEEGALDNTIYTSVMCMESGTYYYHTYDCRQIIAVHLFHENLDTDEIKAYPFQRKQKIFYEN”, the protein production is reported as “failed”.
For “MKRLIVSSSVVLFMFLCSITITSAENNSVKVAFIRHHNLWIKVDGKEIQITKGEYITGPKWSYDGEWLAYVKGKKQSILELYRLKDGKKVTPFHSEASNYQWSPTENIIAFIFTGTLNTFDVEKKNADFENVSAGVGDYAWYPDGKNFLVSSEAHLLPTGWTGAQLYEVQKDAHMNPHKMKHLYALPNEHDDFLALVASGFKWSPDQKWISFLAVPTASWSADSNTLCLVRADGSRFEKVDQMLLNAQWFQWAPSKNILAYIEGSGRVALENKHLKVKELPALQQNIFTPKGYVDWDFVWKNDRVIIVSRAKEAGIETPPEKRPLPSLYEVDSTSNAQHQITKKTNKQGDYHPIFMKKSNQLIWIRSDRKKADVWLAHKDRKQEKKWIENIDVPAWYYEKWNWGNVISVKEE”, the protein production was “failed”.
For “MITVVKRNGRIEPLDITKIQKYTKDATDNLEGVSQSELEVDARLQFRDKITTEEIQQTLIKTAVDKIDIDTPNWSFVASRLFLYDLYHKVSGFTGYRHLKEYFENAEEKGRILKGFKEKFDLEFLNSQIKPERDFQFNYLGIKTLYDRYLLKDANNNPIELPQHMFMSIAMFLAQNEQEPNKIALEFYEVLSKFEAMCATPTLANARTTKHQLSSCYIGSTPDNIEGIFDSYKEMALLSKYGGGIGWDFSLVRSIGSYIDGHKNASAGTIPFLKIANDVAIAVDQLGTRKGAIAVYLEIWHIDVMEFIDLRKNSGDERRRAHDLFPALWVCDLFLKRVLEDAMWTLFDPYECKDLTELYGQDFEKRYLEYEKDPKIIKEYINAKDLWKKILMNYFEAGLPFLAFKDNANRCNPNAHAGIIRSSNLCTEIFQNTAPNHYYMQIEYTDGTIEFFEEKELVTTDSNITKCANKLTSTDILKGKPIYIATKVAKDGQTAVCNLASINLSKINTEEDIKRVVPIMVRLLDNVIDLNFYPNRKVKATNLQNRAIGLGVMGEAQMLAEHQIAWGSKEHLEKIDALMEQISYHAIDTSANLAKEKGVYKDFENSEWSKGIFPIDKANNEALKLTEKGLFNHACDWQGLREKVKANGMRNGYLMAIAPTSSISILVGTTQTIEPIYKKKWFEENLSGLIPVVVPNLNVETWNFYTSAYDIDAKDLIKAAAVRQKWIDQGQSLNVFLRIENASGKTLHDIYTLAWKLGLKSTYYLRSESPSIDEKSVLDRSVECFNCQ”, the protein production was “failed”.
With “MRRVTVPTAPPAYADIGYPMSMLPIKSSRAVSGIQQKQEVLPGMDTPSNSMRPVADDNIDHTSHTPNGVASAFILEATVNVISGPKVLMKQIPIWLPLGIADQKTYSFDSTTAAIMLASYTITHFGKANNPLVRVNRLGQGIPDHPLRLLRMGNQAFLQEFVLPPVQLPQYFTFDLTALKLVTQPLPAATWTDETPSNLSGALRPGLSFHPKLRPVLLPGKTGKKGHVSDLTAPDKIQTIVNLMQDFKIVPIDPAKSIIGIEVPELLVHKLTGKKMSQKNGQPIIPVLLPKYIGLDPISPGDLTMVITPDYDDCHSPASCSYLSEK” the protein production was “not failed”.
In the case of “LPLTDALRKALAEAPKHTANIARKRHILFIGKLMRDQDQEAILVLLDQLDASTRQYNERFHNLERWRDRLIAGDDADLEKFVIEYPDADRQQLRSLIRQAQHEVARNKP”, the protein production is reported as “failed”.
With “MRVPLDEIDKKIIKILQNDGKAPLREISKITGLAESTIHERIRKLRESGVIKKFTAIIDPEALGYSMLAFILVKVKAGKYSEVASNLAKYPEIVEVYETTGDYDMVVKIRTKNSEELNNFLDLIGSIPGVEGTHTMIVLKTHKETTELPIK” the protein production was “not failed”.
In the case of “MSALREALRDLPDAVFADVLESEDEYLLVLDLPGVTAETIDVTVEGGRLRIDGQRTKDVPGEFTFVREDRSVFLDAELPLPPDTTGQGGEGTVENGVLELRLPKATAAPSTTIPIDGD”, the protein production is reported as “failed”.
For “ALSSLNIIHIAAPHLEALNIATGETINFSSREDDHAILIYKLEPTTGMLRTRAYIGQHMPLYCSAMGKIYMAFGHPDYVKSYWENHQHEIQPLTRNTITELPAMFDELAHIRESGAAMDREENELGVSCIAVPVFDIHGRVPYAVSISLSTSRLKQVGEKNLLKPLRETAQAISNELGFTVRDDLGAIT”, the protein production was “not failed”.
